The target of the test is Vibrio cholerae ApbE (alternative pyrimidine biosynthesis protein), recombinant, without the leader sequence (Vibrio cholerae) (UniProt A5F5Y3).
Vibrio cholerae ApbE (alternative pyrimidine biosynthesis protein), recombinant, without the leader sequence (Vibrio cholerae), sequence (A5F5Y3 18-334): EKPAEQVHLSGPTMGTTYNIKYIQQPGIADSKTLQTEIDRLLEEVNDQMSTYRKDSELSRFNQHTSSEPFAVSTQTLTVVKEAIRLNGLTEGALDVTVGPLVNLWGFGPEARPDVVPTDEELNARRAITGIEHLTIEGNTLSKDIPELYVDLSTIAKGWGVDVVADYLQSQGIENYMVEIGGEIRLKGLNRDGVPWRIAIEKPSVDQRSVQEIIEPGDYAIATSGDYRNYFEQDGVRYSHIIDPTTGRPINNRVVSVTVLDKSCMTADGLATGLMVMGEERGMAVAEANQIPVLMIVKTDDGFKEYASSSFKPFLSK

Turning to “Vibrio cholerae NqrC (subunit C of Na+-NQR), soluble, without the N-terminal transmembrane helix (domain or fragment)”, the Km for NqrC in the steady-state flavin transfer activity of ApbE (NqrC varied, FAD 1 mM, pH 9.0) was > 100 μM.

(Values after paper PMC5655446.)
